Consider two molecules from ChEMBL document CHEMBL6182944, “Substrate Specificity of the Organic Cation Transporters MATE1 and MATE2K and Functional Overlap with OCT1 and OCT2” (J Med Chem, 2025).

In data set [1] the target is T1, MATE2-K (Homo sapiens, UniProt Q86VL8).
T1 sequence (Q86VL8 whole entry): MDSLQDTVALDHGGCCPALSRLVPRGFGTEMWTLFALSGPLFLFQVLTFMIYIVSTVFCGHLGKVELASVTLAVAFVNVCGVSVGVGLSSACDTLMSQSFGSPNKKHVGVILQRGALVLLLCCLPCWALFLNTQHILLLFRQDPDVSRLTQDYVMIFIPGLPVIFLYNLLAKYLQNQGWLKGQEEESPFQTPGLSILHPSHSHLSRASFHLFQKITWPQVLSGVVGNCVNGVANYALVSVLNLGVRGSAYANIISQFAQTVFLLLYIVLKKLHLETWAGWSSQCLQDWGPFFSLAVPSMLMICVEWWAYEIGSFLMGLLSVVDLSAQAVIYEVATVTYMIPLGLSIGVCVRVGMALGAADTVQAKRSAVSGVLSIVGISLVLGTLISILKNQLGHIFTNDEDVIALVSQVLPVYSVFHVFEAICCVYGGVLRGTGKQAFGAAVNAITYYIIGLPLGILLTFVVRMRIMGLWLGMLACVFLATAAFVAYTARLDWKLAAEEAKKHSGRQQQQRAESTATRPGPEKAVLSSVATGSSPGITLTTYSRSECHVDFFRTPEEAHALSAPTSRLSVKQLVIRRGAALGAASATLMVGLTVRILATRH
Nature of the data set: (§1) Substrate activity at MATE2-K (unknown origin) expressed in HEK293 cells assessed as substrate concentration to achieve half of Vmax (maximum transport velocity) measured per mg of protein by HPLC-MS/MS analysis. It is filed as cell-based. Conditions: HEK293 cells expressing MATE2-K.

The target in data set [2] is T2, Multidrug and toxin extrusion protein 2 (Homo sapiens, UniProt Q86VL8).
T2 sequence (Q86VL8 whole entry): T1 sequence (Q86VL8 whole entry)
Nature of the data set: Substrate activity at MATE2-K (unknown origin) expressed in HEK293 cells assessed as Vmax (maximum transport velocity) by HPLC-MS/MS analysis. The data set is classed as cell-based.

For data set [3], the target named is T3, Multidrug and toxin extrusion protein 1 (Homo sapiens, UniProt Q96FL8).
T3 sequence (Q96FL8 whole entry): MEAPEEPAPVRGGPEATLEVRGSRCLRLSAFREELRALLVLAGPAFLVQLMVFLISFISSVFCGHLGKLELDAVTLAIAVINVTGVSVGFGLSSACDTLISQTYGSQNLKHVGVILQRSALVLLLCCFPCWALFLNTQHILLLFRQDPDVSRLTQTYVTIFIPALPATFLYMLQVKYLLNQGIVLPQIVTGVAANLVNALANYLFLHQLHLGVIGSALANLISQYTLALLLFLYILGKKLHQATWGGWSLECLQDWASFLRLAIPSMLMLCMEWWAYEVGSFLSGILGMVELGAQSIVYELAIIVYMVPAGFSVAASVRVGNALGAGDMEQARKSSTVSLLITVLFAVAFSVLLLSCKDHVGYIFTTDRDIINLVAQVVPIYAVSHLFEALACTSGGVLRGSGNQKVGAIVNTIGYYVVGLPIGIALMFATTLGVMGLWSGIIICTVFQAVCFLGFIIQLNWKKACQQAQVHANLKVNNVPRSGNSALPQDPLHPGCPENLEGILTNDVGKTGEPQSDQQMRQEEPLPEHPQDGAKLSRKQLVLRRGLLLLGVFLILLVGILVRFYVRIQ
Nature of the data set: Substrate activity at MATE1 (unknown origin) expressed in HEK293 cells assessed as intrinsic clearance by measuring ratio of Vmax (maximum transport velocity) over Km measured per mg of protein by HPLC-MS/MS analysis. The data set is classed as cell-based.

Data set [4] has as its target T2, Multidrug and toxin extrusion protein 2. Nature of the data set: Substrate activity at MATE2-K (unknown origin) expressed in HEK293 cells assessed as intrinsic clearance by measuring ratio of Vmax (maximum transport velocity) over Km measured per mg of protein by HPLC-MS/MS analysis. It is filed as cell-based.
For data set [5], the target named is T3, Multidrug and toxin extrusion protein 1. Nature of the data set: Substrate activity at MATE1 (unknown origin) expressed in HEK293 cells assessed as Vmax (maximum transport velocity) by HPLC-MS/MS analysis. It is filed as cell-based.
Substrate in data set [6]: c1c2c(cc3c1OCO3)-c1cc3ccc4c(c3c[n+]1CC2)OCO4
The data set is described as §1. It is filed as cell-based, Homo sapiens.

Substrate in data set [7]: CC(CCc1ccc(O)cc1)NCCc1ccc(O)c(O)c1
The data set is described as §1. The data set is classed as cell-based, Homo sapiens.

Substrate in data set [8]: CN(C)C(=O)Oc1cccc([N+](C)(C)C)c1
Described as §1. The data set is classed as cell-based, Homo sapiens.

Substrate in data set [9]: C[C@H]1N=C(N(C)C)N=C(N)N1
The description is as §1. The data set is classed as cell-based, Homo sapiens.

Substrate in data set [10]: C[N+]1(CC2CC2)CC[C@]23c4c5ccc(O)c4O[C@H]2C(=O)CC[C@@]3(O)[C@H]1C5
Described as §1. The data set is classed as cell-based, Homo sapiens.

Substrate in data set [11]: CCN1CCCC1CNC(=O)c1cc(S(=O)(=O)CC)c(N)cc1OC
The data set is described as §1. The data set is classed as cell-based, Homo sapiens.

Substrate in data set [12]: COCCn1c2c([n+](Cc3cnccn3)c1C)C(=O)c1ccccc1C2=O
Described as §1. It is filed as cell-based, Homo sapiens.

Substrate in data set [13]: CN(C)CCc1c[nH]c2ccc(C[C@H]3COC(=O)N3)cc12
Nature of the data set: not read.

Substrate in data set [14]: Cc1ncc(CO)c(CO)c1O
The data set can be described thus: not read.

Substrate in data set [15]: Nc1nc(=O)n([C@@H]2CS[C@H](CO)O2)cc1F
Nature of the data set: not read.

Substrate in data set [16]: CC(C)NC[C@@H](O)COc1ccc(CC(N)=O)cc1
Nature of the data set: not read.

Substrate in data set [17]: Cc1ncc(C[n+]2csc(CCO)c2C)c(N)n1
The data set can be described thus: not read.

Substrate in data set [18]: CNC[C@H](O)c1ccc(O)c(O)c1
Nature of the data set: not read.

Substrate in data set [19]: NCCc1ccc(O)c(O)c1
The data set can be described thus: not read.

The term Km denotes the concentration of substrate that gives half-maximal velocity. The term Vmax denotes the rate approached at saturating substrate. In the case of `CN(C)CCc1c[nH]c2ccc(C[C@@H]3COC(=O)N3)cc12`, in data set [1], the Michaelis constant (Km) came to 18.3 µM. The values for the Vmax in data set [2] and in data set [5] were 992 pmol/min and 2624 pmol/min, respectively. Moreover, the values for the CL in data set [3] and in data set [4] were 94.5 µL/min and 54.2 µL/min, respectively.

B1: Multidrug and toxin extrusion protein 2 (Homo sapiens) (protein)
chain: T1 sequence (Q86VL8 whole entry)
For B1, the Km in [6] is 1.88 µM; in data set [7] it was 86.4 µM; in [8] it was 385 µM; in [9], 81.6 µM; in data set [10], 86.8 µM; in data set [11] it was 39.9 µM. The Km in data set [12] came out at 8.54 µM; in [13], 94.5 µM; in data set [14], 495 µM; in [15], 873 µM; in data set [16] it was 181 µM; in data set [18], 1510 µM. For the same molecule, the Km in data set [19] was 961 µM. Besides, the Vmax was 0.000246 µmol/min in data set [6]; 0.000493 µmol/min in data set [7]; 0.00314 µmol/min in [8]; 0.00281 µmol/min in data set [9]; 4.16e-05 µmol/min in data set [10]; 0.00071 µmol/min in [11]. In addition, the Vmax in [12] was determined as 7.85e-05 µmol/min; in [13], 0.00166 µmol/min; in [14], 0.000593 µmol/min; in data set [15], 0.00263 µmol/min; in data set [16], 0.00296 µmol/min; in data set [17], 0.000109 µmol/min. Also, the results for the Vmax in data set [18] and in [19] were 0.00297 µmol/min and 0.00122 µmol/min, respectively.
